These results are taken from patent US20220204611A1 (Amgen, published 2022).

For experiment [1], the target named is T1, human TREM2 (human, UniProt Q9NZC2 19-174, limits assumed).
T1 sequence: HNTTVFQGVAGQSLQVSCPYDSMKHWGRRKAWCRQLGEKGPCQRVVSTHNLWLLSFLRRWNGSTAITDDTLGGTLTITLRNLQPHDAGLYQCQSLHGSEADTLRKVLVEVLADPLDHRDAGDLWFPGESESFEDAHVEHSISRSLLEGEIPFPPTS
The experiment in a line: yeast-displayed Fab FACS, 2nd screen 10 nM.

Experiment [2] deals with T1, human TREM2. The experiment in a line: yeast-displayed Fab FACS, 2nd screen 2 nM.
In experiment [3] the target is T1, human TREM2. The experiment in a line: yeast-displayed Fab FACS, 1st screen 10 nM.

B1: V65 (Fab, V domains shown)
VH: EVQLVQSGAEVKKPGESLKISCKGSGYSFTSYWIAWVRQMPGKGLEWMGIIYPGDSDTRYSPSFQGQVTISADKSISTAYLQWSSLKASDTAMYFCARSRTFYYDSSDYFDYWGQGTLVTVSS
VL: DIQMTQSPSSVSASVGDRVTITCRASQGISSWLAWYQQKPGKAPKLLIYAASSLQNGVPSRFSGSGSGTDFTLTISSLQPEDFATYFCQQADSFPRTFGQGTKLEIK
For the molecule B1, the “binding signal fold over 6E7 parental” value was determined as 2.75 fold in experiment [1], 1.29 fold in experiment [2] and 2.05 fold in experiment [3].

B2: V17 (Fab, V domains shown)
VH: EVQLVQSGAEVKKPGESLKISCKGSGYSFGSYWIAWVRQMPGKGLEWMGIIYPGDSDTRYSPSFQGQVTISADKSISTAYLQWSSLKASDTAMYFCARSRTFYYDSSDYFDYWGQGTLVTVSS
VL: DIQMTQSPSSVSASVGDRVTITCRASQGISSWLAWYQQKPGKAPKLLIYAASSRQNGVPSRFSGSGSGTDFTLTISSLQPEDFATYFCQQADSSPRTFGQGTKLEIK
B2: the figures for the “binding signal fold over 6E7 parental” value in experiment [1], in experiment [2] and in experiment [3] were 5.51 fold, 4.22 fold and 5.37 fold, respectively.

B3: V2 (Fab, V domains shown)
VH: EVQLVQSGAEVKKPGESLKISCKGSGSSFTSYWIAWVRQMPGKGLEWMGIIYPGDGDTRYSPSFQGQVTISADKSISTAYLQWSSLKASDTAMYFCARSRTFYYDSSDYFDYWGQGTLVTVSS
VL: DIQMTQSPSSVSASVGDRVTITCRASQGISSWLAWYQQKPGKAPKLLIYAASSRQNGVPSRFSGSGSGTDFTLTISSLQPEDFATYFCQQADRFPRTFGQGTKLEIK
B3: the “binding signal fold over 6E7 parental” value turned out to be 2.9 fold in experiment [1], 2.23 fold in experiment [2] and 2.55 fold in experiment [3].

B4: V14 (Fab, V domains shown)
VH: EVQLVQSGAEVKKPGESLKISCKGSGYSFGSYWIAWVRQMPGKGLEWMGIIYPGDQDTRYSPSFQGQVTISADKSISTAYLQWSSLKASDTAMYFCARGRTFYYDSSDYFDYWGQGTLVTVSS
VL: DIQMTQSPSSVSASVGDRVTITCRASQGISSWLAWYQQKPGKAPKLLIYAASRLQNGVPSRFSGSGSGTDFTLTISSLQPEDFATYFCQQADSFPRTFGQGTKLEIK
As for B4, the “binding signal fold over 6E7 parental” value in experiment [1] worked out at 4.64 fold; in experiment [2], 2.57 fold; in experiment [3] it was 4.71 fold.

B5: V15 (Fab, V domains shown)
VH: EVQLVQSGAEVKKPGESLKISCKGSGYSFASYWIAWVRQMPGKGLEWMGTIYPGDSDTRYSPSFQGQVTISADKSISTAYLQWSSLKASDTAMYFCARSRTFYYDSSDYFDYWGQGTLVTVSS
VL: DIQMTQSPSSVSASVGDRVTITCRASQGISSWLAWYQQKPGKAPKLLIYAASWLQNGVPSRFSGSGSGTDFTLTISSLQPEDFATYFCQQADSYPRTFGQGTKLEIK
As to B5, the “binding signal fold over 6E7 parental” value was 4.78 fold in experiment [1], 4.72 fold in experiment [2] and 5.23 fold in experiment [3].

B6: V13 (Fab, V domains shown)
VH: EVQLVQSGAEVKKPGESLKISCKGSGYSFGSYWIAWVRQMPGKGLEWMGIIYPGDSDTRYSASFQGQVTISADKSISTAYLQWSSLKASDTAMYFCARGRTFYYDSSDYFDYWGQGTLVTVSS
VL: DIQMTQSPSSVSASVGDRVTITCRASQGISSWLAWYQQKPGKAPKLLIYAASSLQGGVPSRFSGSGSGTDFTLTISSLQPEDFATYFCQQADSMPRTFGQGTKLEIK
On to B6, for which the “binding signal fold over 6E7 parental” value is 1.35 fold in experiment [1], 1.15 fold in experiment [2] and 1.31 fold in experiment [3].

B7: V4 (Fab, V domains shown)
VH: EVQLVQSGAEVKKPGESLKISCKGSGYSFGSYWIAWVRQMPGKGLEWMGIIYPGDSDTRVSPSFQGQVTISADKSISTAYLQWSSLKASDTAMYFCARSRTFYYDSSDYFDYWGQGTLVTVSS
VL: DIQMTQSPSSVSASVGDRVTITCRASQGISSWLAWYQQKPGKAPKLLIYAASRLQNGVPSRFSGSGSGTDFTLTISSLQPEDFATYFCQQADSYPRTFGQGTKLEIK
As for B7, the “binding signal fold over 6E7 parental” value in experiment [1] came to 5.51 fold; in experiment [2], 5.88 fold; in experiment [3], 6 fold.

B8: V26 (Fab, V domains shown)
VH: EVQLVQSGAEVKKPGESLKISCKGSGYSFTSYWIGWVRQMPGKGLEWMGTIYPGDSDTRYSPSFQGQVTISADKSISTAYLQWSSLKASDTAMYFCARQRTMYYDSSDYFDAWGQGTLVTVSS
VL: DIQMTQSPSSVSASVGDRVTITCRASQGISSWLAWYQQKPGKAPKLLIYAASSLQRGVPSRFSGSGSGTDFTLTISSLQPEDFATYFCQQADSYPRTFGQGTKLEIK
B8: the “binding signal fold over 6E7 parental” value in experiment [1] was determined as 3.47 fold; in experiment [2] it was 2.83 fold; in experiment [3], 3.57 fold.

B9: V3 (Fab, V domains shown)
VH: EVQLVQSGAEVKKPGESLKISCKGSGYSFASYWIAWVRQMPGKGLEWMGIIYPGDSDTRYSPSFQDQVTISADKSISTAYLQWSSLKASDTAMYFCARGRTFYYDSSDYFDYWGQGTLVTVSS
VL: DIQMTQSPSSVSASVGDRVTITCRASQGISSWLAWYQQKPGKAPKLLIYAASSRQNGVPSRFSGSGSGTDFTLTISSLQPEDFATYFCQQADRFPRTFGQGTKLEIK
In the case of B9, the “binding signal fold over 6E7 parental” value turned out to be 2.24 fold in experiment [1], 1.95 fold in experiment [2] and 1.97 fold in experiment [3].

B10: V5 (Fab, V domains shown)
VH: EVQLVQSGAEVKKPGESLKISCKGSGYSFTSYWIAWVRQMPGKGLEWMGTIYPGDSDTRYSPSFQGQVTISADKSISTAYLQWSSLKASDTAMYFCARQRTFYYDSSDYFDYWGQGTLVTVSS
VL: DIQMTQSPSSVSASVGDRVTITCRASQGISSWLAWYQQKPGKAPKLLIYAASSLQNGVPSRFSGSGSGTDFTLTISSLQPEDFATYFCQQADSHPRTFGQGTKLEIK
Consider B10, for which the “binding signal fold over 6E7 parental” value was determined as 2.84 fold in experiment [1], 1.25 fold in experiment [2] and 2.73 fold in experiment [3].

B11: V27 (Fab, V domains shown)
VH: EVQLVQSGAEVKKPGESLKISCKGSGYSFTSYWIAWVRQMPGKGLEWMGIIYPGDSDTRYAPSFQGQVTISADKSISTAYLQWSSLKASDTAMYFCVRSRTFYYDSSDYFDYWGQGTLVTVSS
VL: DIQMTQSPSSVSASVGDRVTITCRASQGISSWLAWYQQKPGKAPKLLIYAASSLQRGVPSRFSGSGSGTDFTLTISSLQPEDFATYFCQQADSFPRTFGQGTKLEIK
With B11, the entries for the “binding signal fold over 6E7 parental” value in experiment [1], in experiment [2] and in experiment [3] were 5.69 fold, 5.67 fold and 5.5 fold, respectively.

B12: V29 (Fab, V domains shown)
VH: EVQLVQSGAEVKKPGESLKISCKGSGYSFKSYWIAWVRQMPGKGLEWMGIIYPGDSDTRYSPSFQGQVTISADKSISTAYLQWSSLKASDTAMYFCARQRTFYYDSSDYFDYWGQGTLVTVSS
VL: DIQMTQSPSSVSASVGDRVTITCRASQGISSWLAWYQQKPGKAPKLLIYAASSLQNGVPSRFSGSGSGTDFTLTISSLQPEDFATYFCQQADSFPRTFGQGTKLEIK
As to B12, the “binding signal fold over 6E7 parental” value is 1.67 fold in experiment [1], 0.84 fold in experiment [2] and 1.53 fold in experiment [3].

B13: V16 (Fab, V domains shown)
VH: EVQLVQSGAEVKKPGESLKISCKGSGYSMTSYWIAWVRQMPGKGLEWMGIIYPGDGDTRYSPSFQGQVTISADKSISTAYLQWSSLKASDTAMYFCARSRTFYYDSSDYFDYWGQGTLVTVSS
VL: DIQMTQSPSSVSASVGDRVTITCRASQGISSWLAWYQQKPGKAPKLLIYAASNLQNGVPSRFSGSGSGTDFTLTISSLQPEDFATYFCQQADSFPRTFGQGTKLEIK
Turning to B13, the “binding signal fold over 6E7 parental” value in experiment [1] was 4.04 fold; in experiment [2], 3.57 fold; in experiment [3], 4.01 fold.

B14: V25 (Fab, V domains shown)
VH: EVQLVQSGAEVKKPGESLKISCKGSGYSFGSYWIAWVRQMPGKGLEWMGLIYPGDSDTRYSPSFQGQVTISADKSISTAYLQWSSLKASDTAMYFCARSRTFYYDSSDYFDYWGQGTLVTVSS
VL: DIQMTQSPSSVSASVGDRVTITCRASQGISSWLAWYQQKPGKAPKLLIYAASSLANGVPSRFSGSGSGTDFTLTISSLQPEDFATYFCQQADSMPRTFGQGTKLEIK
As for B14, the “binding signal fold over 6E7 parental” value in experiment [1] was found to be 4.7 fold; in experiment [2] it was 3.15 fold; in experiment [3] it was 4.23 fold.

B15: V1 (Fab, V domains shown)
VH: EVQLVQSGAEVKKPGESLKISCKGSGYSFTSSWIAWVRQMPGKGLEWMGIIYPGDSDTRYSPSFQGQVTISADKSISTAYLQWSSLKASDTAMYFCARSRTFYYDSSDYFDYWGQGTLVTVSS
VL: DIQMTQSPSSVSASVGDRVTITCRASQGISSWLAWYQQKPGKAPKLLIYAASSLTNGVPSRFSGSGSGTDFTLTISSLQPEDFATYFCQQADSYPRTFGQGTKLEIK
In the case of B15, the “binding signal fold over 6E7 parental” value in experiment [1] is 1.92 fold; in experiment [2] it was 1.29 fold; in experiment [3] it was 1.68 fold.

B16: V24 (Fab, V domains shown)
VH: EVQLVQSGAEVKKPGESLKISCKGSGYSFTSYWIAWVRQMPGKGLEWMGIIYPGDSDVRYSPSFQGQVTISADKSISTAYLQWSSLKASDTAMYFCARSRTFYYDSSDYFDYWGQGTLVTVSS
VL: DIQMTQSPSSVSASVGDRVTITCRASQGISSWLAWYQQKPGKAPKLLIYAASSLQKGVPSRFSGSGSGTDFTLTISSLQPEDFATYFCQQADSFPHTFGQGTKLEIK
Take B16: the “binding signal fold over 6E7 parental” value in experiment [1] came to 2.9 fold; in experiment [2] it was 1.42 fold; in experiment [3], 2.64 fold.
